Measurements reported in publication PMC4822050, “Hemi-methylated DNA opens a closed conformation of UHRF1 to facilitate its histone recognition” (Nature Communications, 2016).

B1: Spacer of UHRF1 (residues 587–674) [human] / TTD of UHRF1 (residues 134–285) [human] (parent)
chain 1: PGPWTKEGKDRIKKLGLTMQYPEGYLEALANREREKENSKREEEEQQEGGFASPRTGKGKWKRKSAGGGPSRAGSPRRTSKKTKVEPY
chain 2: LYKVNEYVDARDTNMGAWFEAQVVRVTRKAPSRDEPCSSTSRPALEEDVIYHVKYDDYPENGVVQMNSRDVRARARTIIKWQDLEVGQVVMLNYNPDNPKERGFWYDAEISRKRETRTARELYANVVLGDDSLNDCRIIFVDEVFKIERPGE

Variants of: B1
Test: ITC
Conditions: with TTD of UHRF1 (residues 134–285) [human]; Cell: Spacer; Sy: TTD
With chain 1 PGPWTKEGKDRIKKLGLTMQYPEGYLEALANREREKENSKREEEEQQEGGFASPRTGKGKWDRKSAGGGPSRAGSPRRTSKKTKVEPY the Kd was 5.94 µM.
chain 1 PGPWTKEGKDRIKKLGLTMQYPEGYLEALANREREKENSKREEEEQQEGGFADPRTGKGKWKRKSAGGGPSRAGSPRRTSKKTKVEPY showed a Kd of 1.15 µM.
Variant chain 1 PGPWTKEGKDRIKKLGLTMQYPEGYLEALANREREKENSKREEEEQQEGGFASPRTGKGKWKRKSAGGGPSRAGSPRRTDKKTKVEPY has a Kd of 1.26 µM.
chain 1 PGPWTKEGKDRIKKLGLTMQYPEGYLEALANREREKENSKREEEEQQEGGFASPRTGKGKWKAKSAGGGPSRAGSPRRTSKKTKVEPY gave a Kd of 21.4 µM.
